We go through three substances from article PMC4938799, “LD Motif Recognition by Talin: Structure of the Talin-DLC1 Complex” (Structure(London, England:1993), 2016).

A short description of series [1]: Solubility of peptides and protein fragments. The format is physicochemical.
The target in a further series is T1, talin R8 domain (Mus musculus, UniProt P26039).
T1 construct: conducted using 0.1 mM [^15N]talin R8 domain; hexa-histidine tag followed by TEV protease cleavage site (N, cleaved yes); made in house; host or cells: E. coli BL21 STAR (DE3)
T1 sequence (P26039 1461-1580 limits assumed): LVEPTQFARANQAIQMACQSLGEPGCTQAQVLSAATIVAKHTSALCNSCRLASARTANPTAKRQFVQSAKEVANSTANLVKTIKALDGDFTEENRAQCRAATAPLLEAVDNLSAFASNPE
Nature of the series: 1H,15N-HSQC NMR titration of talin R8 with peptides. The format is binding.

Where two headings read alike, the source gives them in different places. Ends that are not written are not given here.

Description for talin R8 domain: NMR spectra were collected on Bruker Avance III 600- and 800-MHz spectrometers equipped with CryoProbes. Experiments were performed at 298 K in 20 mM sodium phosphate (pH 6.5) and 50 mM NaCl with 5% (v/v) ^2H2O. Dissociation constants were evaluated from the ^1H,^15N-HSQC chemical-shift changes in the titration experiments conducted using 0.1 mM [^15N]talin R8 domain. Peptides were added from 5- to 10-mM stock solutions to generate titration points at peptide/protein ratios 0.1, 0.2, 0.5, 0.75, 1, 2, 4, and 8.
NMR Spectroscopy - Spectra were processed with TopSpin (Bruker) and analysed using CCPN Analysis (Vranken et al., 2005). […] The changes in chemical shift of 15N-talin R8 domain were calculated from 1H,15N-HSQC spectra as Δδ=√(ΔδH2+(ΔδN*0.15)2). The cross-peaks corresponding to the bound state were assigned by following chemical shift changes throughout the R8 titration with the increasing amount of peptides.
Dissociation constants were evaluated from the 1H,15N-HSQC chemical shift changes in the titration experiments conducted using 0.1 mM 15N-talin R8 domain. Peptides were added from 5-10 mM stock solutions to generate titration points at 0.1, 0.2, 0.5, 0.75, 1, 2, 4 and 8 peptide:protein ratios.
Concentrations of the DLC1 and RIAM peptides were determined from UV absorbance at 280 nm. […]
Concentration of the R8 domain that lacks UV-active aromatic residues was estimated from the comparison with the spectra of the R3 domain that has similar molecular weight and shape using the calibration procedure described in (Wider and Dreier, 2006). Dissociation constants were determined by fitting the chemical shift changes to the equation:
( ) ( ) [𝑃] + [𝐿] + 𝐾𝑑 − √([𝑃] + [𝐿] + 𝐾𝑑)2 − 4[𝑃][𝐿] where ∆(𝐻, 𝑁)0 is the weighted chemical shift difference at saturation, [P] and [L] are protein and ligand concentrations, respectively. Data were fitted independently for the well-resolved peaks and the average Kd was calculated from 3 different peaks with the lowest standard deviations of the fits. […]

Consider “DLC1(467–489): synthetic DLC1 peptide, residues 467–489; shorter fragment used for crystallization”, for which the solubility result in series [1] is recorded as “less soluble than the longer fragment”. Moreover, the “chemical-shift changes / broadening of talin R8 on peptide addition” value with talin R8 domain (1H,15N-HSQC, talin R8, 298 K, pH 6.5, 4-fold excess of peptide (DLC1(467–489), paxillin LD1) or titration) was “large chemical-shift changes”.

“ENEDIFPELDDILYHVKGMQRIVNQWSEK [DLC1(461–489)]”: the Kd on talin R8 domain (read-out: KD determined by fitting chemical-shift changes) was 48 µM. MDDLDALLADLESTTS [paxillin LD1] showed a Kd on talin R8 domain of 168 µM.
